Measured values: PMC5170866 (Molecular Biology of the Cell, 2016)

Target: Recombinant His-tagged CYFIP2-N (aa 1–624) (mouse, UniProt Q5SQX6 1-624)
Assay: pull-down

Chain of Recombinant His-tagged CYFIP2-N (aa 1–624) (Q5SQX6 1-624): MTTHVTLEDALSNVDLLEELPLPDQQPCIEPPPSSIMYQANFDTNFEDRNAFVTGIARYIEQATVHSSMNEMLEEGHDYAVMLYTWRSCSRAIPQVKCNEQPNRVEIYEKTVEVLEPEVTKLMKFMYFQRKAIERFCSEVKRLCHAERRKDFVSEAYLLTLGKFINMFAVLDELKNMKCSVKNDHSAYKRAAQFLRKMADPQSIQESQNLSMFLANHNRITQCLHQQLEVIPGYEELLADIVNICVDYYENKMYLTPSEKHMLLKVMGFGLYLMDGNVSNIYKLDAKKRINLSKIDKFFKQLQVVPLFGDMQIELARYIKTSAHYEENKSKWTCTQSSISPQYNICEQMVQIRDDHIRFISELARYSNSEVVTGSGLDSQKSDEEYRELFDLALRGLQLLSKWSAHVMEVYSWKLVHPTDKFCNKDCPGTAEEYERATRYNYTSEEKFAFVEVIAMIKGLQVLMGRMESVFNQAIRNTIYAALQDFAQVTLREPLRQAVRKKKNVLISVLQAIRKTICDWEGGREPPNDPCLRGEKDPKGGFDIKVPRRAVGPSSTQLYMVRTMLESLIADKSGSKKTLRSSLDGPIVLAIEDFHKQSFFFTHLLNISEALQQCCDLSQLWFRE

binding result: binds
B1: C-terminus of retrolinkin (RTLN-C, aa 489–574) fused to GST (domain or fragment, mouse, UniProt Q8BHE4 489-574, looked up)
chain: CCMRRKKKTANPENNLSYWNNAITMDYFNRHAVELPREIQSLETSEDQLSEPRSPANGDYRDTGMVLVNPFCQETLFVGNDQVSEI
